Measurements reported in patent publication US12540161B2, “Linkers” (BicycleTx Limited, priority 2020, dated 2026).

Tests used:
[1] = in vitro; conditions: rat, plasma, pH 7.4
Procedure: Pooled frozen plasma was thawed in a water bath at 37° C. Plasma was centrifuged at 4000 rpm for 5 min and the clots were removed if any. The pH will be adjusted to 7.4±0.1 if required. 1 mM stock solution was prepared with DMSO. Propantheline (positive control) was prepared by making a 100 μM working solution by diluting 5 μL of the stock solution (10 mM) with 495 μL ultra pure water. 100 μM working solutions of test compounds were made up by diluting 10 μL of the stock solution (1 mM) with 90 μL DMSO. 98 μL of blank plasma was spiked with 2 μL of dosing solution (100 μM) to achieve 2 μM of the final concentration in duplicate and samples were incubated at 37° C. in a water bath. At each time point (0, 1, 2, 4, 6 and 24 hr), 400 μL of 200 ng/mL tolbutamide and labetalol in 100% MeOH was added and mixed thoroughly to precipitate proteins. Sample plates were centrifuged at 4,000 rpm for 15 min. An aliquot of supernatant (150 μL) was transferred from each well before submitting for LC-MS/MS analysis.
The % remaining test compound after incubation in plasma was calculated using following equation: Remaining=100×(PAR at appointed incubation time/PAR at T0 time)
where PAR is the peak area ratio of analyte versus internal standard (IS).
The appointed incubation time points are T0 (0 hr), Tn (n=0, 1, 2, 4, 6, 24 hr). The half-life (T½) was calculated from a log linear plot of concentration versus time.
When the % remaining value at the maximal incubation time, which was 24 hr in this study, was higher than 75%, it is considered to be within the acceptable experimental variation.

[2] = in vivo; conditions: rat, plasma
[3] = rat
[4] = target: Cathepsin B (Homo sapiens, UniProt P07858); assay: Cathepsin B (CatB) cleavage assay; type: biochemical; conditions: BTCs
[5] = system: HT1080 cells; conditions: 1 mg/kg and 3 mg/kg
Procedure: For Cell-Derived Xenograft (CDX) models, mice (balb/c nude, female, 18-23 g at study start) were inoculated with HT1080 cells (5.0×10^6 cells/mouse in 0.2 ml PBS to the right flank). Animals were randomized when the average tumour volume reached the pre-designated start size. Group size is n=4. All studies included a vehicle-treated control.
Dosing was conducted by intravenous bolus. Tumor volume was measured in two dimensions using a caliper, and the volume was expressed in mm^3 using the formula: V=0.5 a×b^2 where a and b are the long and short diameters of the tumor, respectively.

[6] = in vivo; conditions: male, CD-1, mouse, plasma, intravenous
Procedure: Male CD-1 mice were dosed with each Bicycle Conjugate formulated in 25 mM histidine HCl, 10% sucrose pH 7 via tail vein injection. Serial bleeding (about 80 μL blood/time point) was performed via submadibular or saphenous vein at each time point. All blood samples were immediately transferred into prechilled microcentrifuge tubes containing 2 μL K2-EDTA (0.5M) as anti-coagulant and placed on wet ice. Blood samples were immediately processed for plasma by centrifugation at approximately 4° C., 3000 g. The precipitant including internal standard (350 μL) was immediately added into the 35 μL plasma sample, mixed well and centrifuged at 3220 g, 4° C. for 15 minutes. The supernatant was transferred into pre-labeled polypropylene microcentrifuge tubes, and then quick-frozen over dry ice. The samples were stored at 70° C. or below as needed until analysis. Supernatant samples were mixed with 50 μL water, vortexed well and centrifuged at 3220 g, 4° C. for 15 minutes. A sample of the supernatant was injected for LC-MS/MS analysis using an Acquity UPLC with AB Sciex 6500+ Triple Quad MS in positive ion mode to determine the concentrations of Bicycle Conjugate and released payload. Plasma concentration versus time data were analyzed by non-compartmental approaches using the Phoenix WinNonlin 6.3 software program. C0, Cl, Vdss, T1/2, AUC(0-inf), MRT(0-last), MRT(0-inf) nd graphs of plasma concentration versus time profile were reported.

Q: For `CC[C@H](C)[C@@H]([C@@H](CC(=O)N1CCC[C@H]1[C@H](OC)[C@@H](C)C(=O)N[C@H](C)[C@@H](O)c1ccccc1)OC)N(C)C(=O)[C@@H](NC(=O)[C@H](C(C)C)N(C)C(=O)OCc1ccc(NC(=O)[C@H](CCCNC(N)=O)NC(=O)[C@H](Cc2cccc3ccccc23)NC(=O)[C@H](CCC(=O)O)NC(=O)Cn2cc(CCC(=O)NCCC(=O)N(C)CC(=O)N(C)CC(=O)N(C)CC(=O)N(C)CC(=O)N(C)CC(=O)N(C)CC(=O)N(C)CC(=O)N(C)CC(=O)N(C)CC(=O)N(C)CC(=O)N[C@@H](C)C(=O)N[C@H]3CN(C)Cc4cc5cc(c4)CN(C)C[C@@H](C(N)=O)NC(=O)[C@H](C(C)(C)C)NC(=O)[C@H](CC(=O)O)NC(=O)[C@H](Cc4ccc(O)cc4)NC(=O)[C@H](Cc4ccccc4)NC(=O)[C@H](CC(=O)O)NC(=O)[C@H](CCC(=O)O)NC(=O)[C@H](CSC5)NC(=O)[C@@H](C)NC(=O)[C@H](Cc4cccc5ccccc45)NC(=O)[C@H](CCC(=O)O)NC(=O)[C@H](CC(N)=O)NC(=O)[C@@H](C)NC3=O)nn2)cc1)C(C)C` [BCY10984, MMAE-PAB-(Cit-1Nal-Glu)-BCY3900], which half-life at 2 μM [1] is on record?
A: Its half-life at 2 μM is 53.8 h.

Q: What about the half-life [2] of the same compound?
A: The half-life was 1.83 h.

Q: What about the AUC ratio [3] of the same compound?
A: The AUC ratio was 0.0000936.

Q: What about the “% Parent remaining after incubation with CatB, 0 h” value ([4]; 0 h) of the same compound?
A: The value was 100%.

Q: And the “% Parent remaining after incubation with CatB, 1 h” value ([4]; 1 h)?
A: The value was 94.498%.

Q: What about the “% Parent remaining after incubation with CatB, 2 h” value ([4]; 2 h) of the same compound?
A: The value was 83.5%.

Q: And the “% Parent remaining after incubation with CatB, 4 h” value ([4]; 4 h)?
A: The value was 39.2%.

Q: And the “% Parent remaining after incubation with CatB, 6 h” value ([4]; 6 h)?
A: The value was 33.4%.

Q: What about the “% Parent remaining after incubation with CatB, 24 h” value ([4]; 24 h) of the same compound?
A: Its value is 32.5%.

Q: What about the half-life at 40 μM ([4]; read-out: CatB t1/2 (converted)) of the same compound?
A: The half-life at 40 μM was 3.3 h.

Q: What about the “Body weights of the animals” value [5] of the same compound?
A: The value was “not affected”.

Q: And the C0 [6]?
A: Its C0 is 112 µg/mL.

Q: What about the Vd [6] of the same compound?
A: Its Vd is 0.09 L/kg.

Q: And the clearance [6]?
A: The clearance was 0.2 mL/min/kg.

Q: What about the half-life [6] of the same compound?
A: The half-life was 7.55 h.
